Assay results taken from PMC10276003, “Regulation of microRNA expression by the adaptor protein GRB2” (Scientific Reports, 2023).
Values belong to the binder of their own block, whether it stands above or below them.

Columns and labels:
Details in all cases: both partners purified
His-tagged GRB2 [1] = biological target: T1, His-tagged GRB2 (UniProt P62993 1-217); test: ITC; 1.2 mM peptide titrated into 80 uM His-tagged GRB2; 25 C; 20 mM Tris-HCl pH 8, 150 mM NaCl, 1 mM beta-mercaptoethanol
T1 construct: For the MST with DICER1^CT and AGO2 the text writes only GRB2; also called His-GRB2

[2] = biological target: T2, AGO2 (purified as GST-AGO2, GST cleaved) (human, UniProt Q9UKV8 1-859, labelled with Atto 488 NHS ester); test: MST; 2.29 to 75,000 nM unlabelled DICER1^CT with 100 nM Atto 488-labelled AGO2, no GRB2; 20 mM HEPES, 150 mM NaCl, 1 mM TCEP pH 7.5
T2 construct: Argonaute 2 (AGO2), human; source: E. coli BL21(DE3), purified (RNase, glutathione superflow resin, Superdex 75; GST cleaved with thrombin)

[3] = biological target: T3, AGO2 pre-incubated with GRB2 (GRB2-AGO2 complex) (human | , UniProt Q9UKV8 1-859; P62993 1-217, labelled with Atto 488 NHS ester); test: MST; 2.29 to 75,000 nM unlabelled DICER1^CT with 100 nM Atto 488-labelled AGO2 pre-incubated with 25 uM GRB2; 20 mM HEPES, 150 mM NaCl, 1 mM TCEP pH 7.5
T3 construct: Argonaute 2 (AGO2), human; as m20; as m12; The complex was not isolated: labelled AGO2 (100 nM) stood with an excess of GRB2; source: E. coli BL21(DE3), both purified; AGO2 incubated with 25 or 50 uM GRB2 before the MST

[4] = biological target: T3, AGO2 pre-incubated with GRB2 (GRB2-AGO2 …); test: MST; 2.29 to 75,000 nM unlabelled DICER1^CT with 100 nM Atto 488-labelled AGO2 pre-incubated with 50 uM GRB2; 20 mM HEPES, 150 mM NaCl, 1 mM TCEP pH 7.5
His-tagged GRB2 [5] = biological target: T1, His-tagged GRB2; test: ITC; 500 uM MBP-tagged AGO2 domain titrated into 20 uM His-tagged GRB2; 25 C; 20 mM Tris-HCl pH 8, 150 mM NaCl, 10% glycerol, 1 mM beta-mercaptoethanol; one-site model with n fixed at 1

T2 sequence (Q9UKV8 whole entry): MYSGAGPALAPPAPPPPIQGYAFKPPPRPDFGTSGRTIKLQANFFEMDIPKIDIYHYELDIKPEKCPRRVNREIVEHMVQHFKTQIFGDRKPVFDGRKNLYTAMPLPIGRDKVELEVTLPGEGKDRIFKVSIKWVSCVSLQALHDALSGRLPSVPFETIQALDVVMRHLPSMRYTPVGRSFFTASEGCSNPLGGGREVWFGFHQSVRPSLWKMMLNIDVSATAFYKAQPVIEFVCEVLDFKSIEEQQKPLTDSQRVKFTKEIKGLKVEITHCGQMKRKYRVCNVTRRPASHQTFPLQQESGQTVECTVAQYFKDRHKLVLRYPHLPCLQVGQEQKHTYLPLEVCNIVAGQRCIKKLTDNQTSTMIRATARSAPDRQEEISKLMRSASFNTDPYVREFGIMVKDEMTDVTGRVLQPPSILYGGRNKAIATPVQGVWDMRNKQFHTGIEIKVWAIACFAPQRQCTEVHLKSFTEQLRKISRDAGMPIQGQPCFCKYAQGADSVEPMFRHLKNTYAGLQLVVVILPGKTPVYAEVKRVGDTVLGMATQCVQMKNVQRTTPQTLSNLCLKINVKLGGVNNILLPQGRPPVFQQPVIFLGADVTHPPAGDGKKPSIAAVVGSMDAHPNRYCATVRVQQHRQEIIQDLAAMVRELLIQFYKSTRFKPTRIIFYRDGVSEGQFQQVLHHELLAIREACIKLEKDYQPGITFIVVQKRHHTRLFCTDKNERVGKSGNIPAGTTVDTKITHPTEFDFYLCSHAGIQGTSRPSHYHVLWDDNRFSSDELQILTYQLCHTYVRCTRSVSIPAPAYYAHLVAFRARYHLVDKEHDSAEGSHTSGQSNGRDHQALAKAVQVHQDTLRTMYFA

Kd (His-tagged GRB2 [1]): 4.27 ± 1.17 µM
B1: PRM-containing peptide from the AGO2 PAZ domain (residues 317-333) (peptide)
peptide: KLVLRYPHLPCLQVGQE
notes: Argonaute 2 (AGO2), human, PAZ domain, residues 317-333; also called peptide spanning the proline-rich motif 323PHLP326

Kd [2]: 17.6 ± 1.7 µM
Kd [3]: 7.9 ± 1.3 µM
Kd [4]: 4.6 ± 0.6 µM
B2: C-terminal domain of DICER1 (DICER1^CT, residues 1276-1922) (domain or fragment, UniProt Q9UPY3 1276-1922, looked up)
chain: DSEQSPSIGYSSRTLGPNPGLILQALTLSNASDGFNLERLEMLGDSFLKHAITTYLFCTYPDAHEGRLSYMRSKKVSNCNLYRLGKKKGLPSRMVVSIFDPPVNWLPPGYVVNQDKSNTDKWEKDEMTKDCMLANGKLDEDYEEEDEEEESLMWRAPKEEADYEDDFLEYDQEHIRFIDNMLMGSGAFVKKISLSPFSTTDSAYEWKMPKKSSLGSMPFSSDFEDFDYSSWDAMCYLDPSKAVEEDDFVVGFWNPSEENCGVDTGKQSISYDLHTEQCIADKSIADCVEALLGCYLTSCGERAAQLFLCSLGLKVLPVIKRTDREKALCPTRENFNSQQKNLSVSCAAASVASSRSSVLKDSEYGCLKIPPRCMFDHPDADKTLNHLISGFENFEKKINYRFKNKAYLLQAFTHASYHYNTITDCYQRLEFLGDAILDYLITKHLYEDPRQHSPGVLTDLRSALVNNTIFASLAVKYDYHKYFKAVSPELFHVIDDFVQFQLEKNEMQGMDSELRRSEEDEEKEEDIEVPKAMGDIFESLAGAIYMDSGMSLETVWQVYYPMMRPLIEKFSANVPRSPVRELLEMEPETAKFSPAERTYDGKVRVTVEVVGKGKFKGVGRSYRIAKSAAARRALRSLKANQPQVPNS
modifications: labelled with Atto 488 NHS ester in the MST with GRB2; unlabelled in the MST with AGO2
notes: DICER1, residues 1276-1922, with the RNase III domains; also called DICER1 C-terminal region

Kd (His-tagged GRB2 [5]): 0.585 ± 0.061 µM
stoichiometry N (His-tagged GRB2 [5]): 1
B3: MBP-tagged AGO2 PAZ domain (residues 235-348) (domain or fragment)
chain: not shown
notes: Argonaute 2 (AGO2), human, PAZ domain, residues 235-348, in pMAL-c5x; The methods say that RNA was left in the PAZ preparation; also called MBP-PAZ; PAZ WT; source: E. coli BL21(DE3), purified (MBPTrap HP, SEC); not shown: MBP, N-terminal, kept
